From paper PMC3504642

How the values were obtained:
FcεRIα (Homo sapiens) = FcεRIα (Homo sapiens) (UniProt P12319); conditions: cited from earlier work
[1] = molecular target: AF488-Fc (C328A/K367C IgE-Fc Cε3-Cε4 protein labeled with Alexa Fluor 488 at residue 367); experiment: other fluorescence titration

For “IgE Fc Fc (Cε2-Cε4) (from UniProt P01854)”, the Kd (FcεRIα (Homo sapiens)) is listed as under 1 nM.
“soluble FcεRI α-chain ectodomain (from UniProt P12319 26-205) (receptor)” gave a Kd [1] of 22 nM.
